Nine molecules from article PMC11446282 can be followed below.

The test system of one test is B55α interactors. The experiment in a line: MS analysis of B55α WT, V228A, I284A, S287A and D340A immunopurifications. It is filed as binding, human. Particulars: log2 ratio of interactor abundance, 4 replicates each, normalised to bait B55α; for log2_ratio_D340_WT: B55α D340A vs WT immunopurification; for log2_ratio I284_WT: B55α I284A vs WT immunopurification; for log2_ratio S287_WT: B55α S287A vs WT immunopurification; for log2_ratio V228_WT: B55α V228A vs WT immunopurification. The procedure: Standard cloning techniques were used throughout. Point mutations were introduced by whole plasmid polymerase chain reaction (PCR). All constructs were fully sequenced. Synthetic DNA was purchased from GeneArt, Life Technologies and cloned into pcDNA5/FRT/TO (Invitrogen) expression vector containing YFP, resulting in the indicated YFP fusion proteins. These constructs were transiently transfected into HeLa cells 24 hours before harvesting cells. Cells were lysed in lysis buffer [50 mM tris-HCl (pH 7.5), 50 mM NaCl, 1 mM EDTA, 1 mM […], and 0.1% NP-40]. Complexes were immunoprecipitated at 4°C in lysis buffer with green fluorescent protein (GFP)–Trap (ChromoTek) and washed in lysis buffer. Precipitated protein complexes were washed three times in lysis buffer, eluted in 2× SDS sample buffer, and subjected to Western blotting or MS as indicated.
Pull-downs were analyzed on a Q-Exactive Plus quadrupole or Fusion Orbitrap Lumos mass spectrometer (Thermo Fisher Scientific) equipped with Easy-nLC 1000 or […] (Thermo Fisher Scientific) and nanospray source (Thermo Fisher Scientific).
Static modifications included carbamidomethylcysteine, and variable modifications included oxidized methionine and STY phosphorylation. Searches were filtered using orthogonal measures including mass measurement accuracy (±3 parts per million), Xcorr for charges from +2 to +4, and dCn targeting a <1% false discovery rate at the peptide level. Quantification of LC-MS/MS spectra was performed using MassChroQ ([57]) and the iBAQ method ([58]). All data were analyzed using R 4.3.0. Missing values were imputed from a normal distribution. […] In each dataset, the abundance of the protein of interest was normalized to be equal across all samples. Statistical analyses were done using a two-tailed Student’s t test.

In another test the test system is PP2A-B55α. Description: Single alanine mutational scan, YFP-tagged interactors immunoprecipitated from HeLa cells, Western blot. It is filed as binding, human. Particulars: single alanine mutant of YFP-tagged ZDS1. A general note: Immunoblotting shows a protein as a band on a membrane.

B1: ARP19_HUMAN (protein, UniProt P56211 2-112, looked up)
cAMP-regulated phosphoprotein …: SAEVPEAASAEEQKEMEDKVTSPEKAEEAKLKARYPHLGQKPGGSDFLRKRLQKGQKYFDSGDYNMAKAKMKNKQLPTAAPDKTEVTGDHIPTPQDLPQRKPSLVASKLAG
With B1, in the test with B55α interactors, the log2_ratio_D340_WT is -2.01, the “log2_ratio I284_WT” value is -0.06, the “log2_ratio S287_WT” value turned out to be 0.27 and the “log2_ratio V228_WT” value is -0.89.

B2: ENSA_HUMAN (protein, UniProt O43768 2-121, looked up)
Alpha-endosulfine: SQKQEEENPAEETGEEKQDTQEKEGILPERAEEAKLKAKYPSLGQKPGGSDFLMKRLQKGQKYFDSGDYNMAKAKMKNKQLPSAGPDKNLVTGDHIPTPQDLPQRKSSLVTSKLAGGQVE
On to B2, for which, in the test with B55α interactors, the log2_ratio_D340_WT is listed as -2.08, the “log2_ratio I284_WT” value is reported as -0.42, the “log2_ratio S287_WT” value turned out to be 0.42 and the “log2_ratio V228_WT” value is listed as -1.31.

B3: FOXC1_HUMAN (protein, UniProt Q12948 1-553, looked up)
Forkhead box protein C1: MQARYSVSSPNSLGVVPYLGGEQSYYRAAAAAAGGGYTAMPAPMSVYSHPAHAEQYPGGMARAYGPYTPQPQPKDMVKPPYSYIALITMAIQNAPDKKITLNGIYQFIMDRFPFYRDNKQGWQNSIRHNLSLNECFVKVPRDDKKPGKGSYWTLDPDSYNMFENGSFLRRRRRFKKKDAVKDKEEKDRLHLKEPPPPGRQPPPAPPEQADGNAPGPQPPPVRIQDIKTENGTCPSPPQPLSPAAALGSGSAAAVPKIESPDSSSSSLSSGSSPPGSLPSARPLSLDGADSAPPPPAPSAPPPHHSQGFSVDNIMTSLRGSPQSAAAELSSGLLASAAASSRAGIAPPLALGAYSPGQSSLYSSPCSQTSSAGSSGGGGGGAGAAGGAGGAGTYHCNLQAMSLYAAGERGGHLQGAPGGAGGSAVDDPLPDYSLPPVTSSSSSSLSHGGGGGGGGGGQEAGHHPAAHQGRLTSWYLNQAGGDLGHLASAAAAAAAAGYPGQQQNFHSVREMFESQRIGLNNSPVNGNSSCQMAFPSSQSLYRTSGAFVYDCSKF
Take B3: in the test with B55α interactors, the log2_ratio_D340_WT is reported as -5.21, the “log2_ratio I284_WT” value is given as -3.45, the “log2_ratio S287_WT” value was 0.53 and the “log2_ratio V228_WT” value was -2.65.

B4: 2ABA_HUMAN (protein, UniProt P63151 2-447, looked up)
Serine/threonine-protein …: AGAGGGNDIQWCFSQVKGAVDDDVAEADIISTVEFNHSGELLATGDKGGRVVIFQQEQENKIQSHSRGEYNVYSTFQSHEPEFDYLKSLEIEEKINKIRWLPQKNAAQFLLSTNDKTIKLWKISERDKRPEGYNLKEEDGRYRDPTTVTTLRVPVFRPMDLMVEASPRRIFANAHTYHINSISINSDYETYLSADDLRINLWHLEITDRSFNIVDIKPANMEELTEVITAAEFHPNSCNTFVYSSSKGTIRLCDMRASALCDRHSKLFEEPEDPSNRSFFSEIISSISDVKFSHSGRYMMTRDYLSVKIWDLNMENRPVETYQVHEYLRSKLCSLYENDCIFDKFECCWNGSDSVVMTGSYNNFFRMFDRNTKRDITLEASRENNKPRTVLKPRKVCASGKRKKDEISVDSLDFNKKILHTAWHPKENIIAVATTNNLYIFQDKVN
As to B4, in the test on B55α interactors, the log2_ratio_D340_WT turned out to be 0.00, the “log2_ratio I284_WT” value came out at 0.00, the “log2_ratio S287_WT” value worked out at 0.00 and the “log2_ratio V228_WT” value was 0.00.

B5: IER5_HUMAN (protein, UniProt Q5VY09 1-327, looked up)
Immediate early response gene …: MEFKLEAHRIVSISLGKIYNSRVQRGGIKLHKNLLVSLVLRSARQVYLSDPCPGLYLAGPAGTPAPPPQQQPGEPAAGPPAGWGEPPPPAARASWPETEPQPERSSVSDAPRVGDEVPVATVTGVGDVFQGGEADATEAAWSRVEGPRQAAAREAEGTAGGWGVFPEVSRAARRPCGCPLGGEDPPGTPAATPRAACCCAPQPAEDEPPAPPAVCPRKRCAAGVGGGPAGCPAPGSTPLKKPRRNLEQPPSGGEDDDAEEMETGNVANLISIFGSSFSGLLRKSPGGGREEEEGEESGPEAAEPGQICCDKPVLRDMNPWSTAIVAF
For B5, in the test with B55α interactors, the log2_ratio_D340_WT is recorded as -7.50, the “log2_ratio I284_WT” value is on record as 0.57, the “log2_ratio S287_WT” value is listed as -6.37 and the “log2_ratio V228_WT” value is reported as -5.72.

B6: AIFM2_HUMAN (protein, UniProt Q9BRQ8 2-373, looked up)
Ferroptosis suppressor …: GSQVSVESGALHVVIVGGGFGGIAAASQLQALNVPFMLVDMKDSFHHNVAALRASVETGFAKKTFISYSVTFKDNFRQGLVVGIDLKNQMVLLQGGEALPFSHLILATGSTGPFPGKFNEVSSQQAAIQAYEDMVRQVQRSRFIVVVGGGSAGVEMAAEIKTEYPEKEVTLIHSQVALADKELLPSVRQEVKEILLRKGVQLLLSERVSNLEELPLNEYREYIKVQTDKGTEVATNLVILCTGIKINSSAYRKAFESRLASSGALRVNEHLQVEGHSNVYAIGDCADVRTPKMAYLAGLHANIAVANIVNSVKQRPLQAYKPGALTFLLSMGRNDGVGQISGFYVGRLMVRLTKSRDLFVSTSWKTMRQSPP
As for B6, in the test with B55α interactors, the log2_ratio_D340_WT is listed as -0.14, the “log2_ratio I284_WT” value is recorded as -0.15, the “log2_ratio S287_WT” value is 0.33 and the “log2_ratio V228_WT” value is recorded as -0.53.

B7: IER2_HUMAN (protein, UniProt Q9BTL4 1-223, looked up)
Immediate early response gene …: MEVQKEAQRIMTLSVWKMYHSRMQRGGLRLHRSLQLSLVMRSARELYLSAKVEALEPEVSLPAALPSDPRLHPPREAESTAETATPDGEHPFPEPMDTQEAPTAEETSACCAPRPAKVSRKRRSSSLSDGGDAGLVPSKKARLEEKEEEEGASSEVADRLQPPPAQAEGAFPNLARVLQRRFSGLLNCSPAAPPTAPPACEAKPACRPADSMLNVLVRAVVAF
As for B7, in the test with B55α interactors, the log2_ratio_D340_WT is given as -8.18, the “log2_ratio I284_WT” value was -0.03, the “log2_ratio S287_WT” value worked out at 0.35 and the “log2_ratio V228_WT” value was -2.82.

B8: ZDS1 R862: ZDS1, R862 to alanine (protein, UniProt P50111 1-915, looked up, variant R862A)
Protein ZDS1: MSNRDNESMLRTTSSDKAIASQRDKRKSEVLIAAQSLDNEIRSVKNLKRLSIGSMDLLIDPELDIKFGGESSGRRSWSGTTSSSASMPSDTTTVNNTRYSDPTPLENLHGRGNSGIESSNKTKQGNYLGIKKGVHSPSRKLNANVLKKNLLWVPANQHPNVKPDNFLELVQDTLQNIQLSDNGEDNDGNSNENNDIEDNGEDKESQSYENKENNTINLNRGLSRHGNASLIRRPSTLRRSYTEFDDNEDDDNKGDSASETVNKVEERISKIKERPVSLRDITEELTKISNSAGLTDNDAITLARTLSMAGSYSDKKDQPQPEGHYDEGDIGFSTSQANTLDDGEFASNMPINNTMTWPERSSLRRSRFNTYRIRSQEQEKEVEQSVDEMKNDDEERLKLTKNTIKVEIDPHKSPFRQQDEDSENMSSPGSIGDFQDIYNHYRQSSGEWEQEMGIEKEAEEVPVKVRNDTVEQDLELREGTTDMVKPSATDDNKETKRHRRRNGWTWLNNKMSREDDNEENQGDDENEENVDSQRMELDNSKKHYISLFNGGEKTEVSNKEEMNNSSTSTATSQTRQKIEKTFANLFRRKPHHKHDASSSPSSSPSSSPSIPNNDAVHVRVRKSKKLGNKSGREPVEPIVLRNRPRPHRHHHSRHGSQKISVKTLKDSQPQQQIPLQPQLEGAIEIEKKEESDSESLPQLQPAVSVSSTKSNSRDREEEEAKKKNKKRSNTTEISNQQHSKHVQKENTDEQKAQLQAPAQEQVQTSVPVQASAPVQNSAPVQTSAPVEASAQTQAPAAPPLKHTSILPPRKLTFADVKKPDKPNSPVQFTDSAFGFPLPLLTVSTVIMFDHRLPINVERAIYALSHLKLSNSKRGLREQVLLSNFMYAYLNLVNHTLYMEQVAHDKEQQQQQQQQP
For B8, the Experimental % binding in the test with PP2A-B55α is reported as 32%.

B9: ZDS1 L863: ZDS1, L863 to alanine (protein, UniProt P50111 1-915, looked up, variant L863A)
Protein ZDS1: MSNRDNESMLRTTSSDKAIASQRDKRKSEVLIAAQSLDNEIRSVKNLKRLSIGSMDLLIDPELDIKFGGESSGRRSWSGTTSSSASMPSDTTTVNNTRYSDPTPLENLHGRGNSGIESSNKTKQGNYLGIKKGVHSPSRKLNANVLKKNLLWVPANQHPNVKPDNFLELVQDTLQNIQLSDNGEDNDGNSNENNDIEDNGEDKESQSYENKENNTINLNRGLSRHGNASLIRRPSTLRRSYTEFDDNEDDDNKGDSASETVNKVEERISKIKERPVSLRDITEELTKISNSAGLTDNDAITLARTLSMAGSYSDKKDQPQPEGHYDEGDIGFSTSQANTLDDGEFASNMPINNTMTWPERSSLRRSRFNTYRIRSQEQEKEVEQSVDEMKNDDEERLKLTKNTIKVEIDPHKSPFRQQDEDSENMSSPGSIGDFQDIYNHYRQSSGEWEQEMGIEKEAEEVPVKVRNDTVEQDLELREGTTDMVKPSATDDNKETKRHRRRNGWTWLNNKMSREDDNEENQGDDENEENVDSQRMELDNSKKHYISLFNGGEKTEVSNKEEMNNSSTSTATSQTRQKIEKTFANLFRRKPHHKHDASSSPSSSPSSSPSIPNNDAVHVRVRKSKKLGNKSGREPVEPIVLRNRPRPHRHHHSRHGSQKISVKTLKDSQPQQQIPLQPQLEGAIEIEKKEESDSESLPQLQPAVSVSSTKSNSRDREEEEAKKKNKKRSNTTEISNQQHSKHVQKENTDEQKAQLQAPAQEQVQTSVPVQASAPVQNSAPVQTSAPVEASAQTQAPAAPPLKHTSILPPRKLTFADVKKPDKPNSPVQFTDSAFGFPLPLLTVSTVIMFDHRLPINVERAIYRASHLKLSNSKRGLREQVLLSNFMYAYLNLVNHTLYMEQVAHDKEQQQQQQQQP
In the test on PP2A-B55α, B9 gave an Experimental % binding of 110%.
